# Assay results taken from the RNAGym collection of RNA variant scans (doi:10.1073/pnas.2313332121).
# Fewer inactive variants are shown than the library holds.
# B1: TPR 5TU (parent)
# chain: GGAUCUUCUCGAUCUAACAAAAAAGACAAAUCUGCCACAAAGCUUGAGAGCAUCUUCGGAUGCAGAGGCGGCAGCCUUCGGUGGCGCGAUAGCGCCAACGUUCUCAACUAUGACACGCAAAACGCGUGCUCCGUUGAAUGGAGUUUAUCAUG
# Variants of: B1
# Assay: polymerase ribozyme fitness, log enrichment relative to wild type (log ratio); higher = more active; in vitro selection for triplet polymerase activity
# Summary of the method: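 Mutant libraries for each subunit of a heterodimeric triplet polymerase ribozyme were made by PCR and then transcribed. Each library underwent one round of in vitro selection in triplicate: annealing with a biotinylated primer, the partner subunit and triplets, frozen incubation at −7 °C, gel excision of extended constructs, streptavidin-bead capture and RT-PCR. Input and output libraries were Illumina-sequenced, and only genotypes with ≥10 input reads and ≥1 read per output were kept. Fitness is the logarithm, base 2, of genotype enrichment over wild-type enrichment, computed from inverse-variance-weighted replicate averages.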
row,Variant,polymerase ribozyme fitness (log ratio)
1,U4G C18U C51U G80C A91G C95G C105U U109A A119U,≤ -4.2
2,A3U C85G C125A U144A,-3.46
3,A3U A37C G84U,-2.36
4,A3G G94U U104C C129U U134A,≤ -4.2
5,A3G C8G A28G G46U G50A G67C G92C A107U U151G,≤ -4.2
6,U4C C75A C85G C99G U145G A147U,≤ -4.2
7,A3C C5A A20U C57A G62C U78G,≤ -4.2
8,A3G C27A G88C A122C A138U,≤ -4.2
9,A3U G62U,-0.505
10,A3C A29U A91U,≤ -4.2
11,A3U U144G,0.419
12,U4A A41G G84A U139G U146C,-0.701
13,A3G U9G C51U G67C G81C A89G A97G,≤ -4.2
14,A3C U56A C69U A91U,≤ -4.2
15,U4A C93U,-1.34
16,A3U G68A U77A C85G C149G,≤ -4.2
17,A3U U6A A19U G42U A113G A121U G124C U148A,≤ -4.2
18,A3U C32A U45G G50C U53A A60G G94A A98G G141U,≤ -4.2
19,U4A A52G C57A G126U,-1.17
20,U4C U53A A121C U144C,-1.34
21,U4G C54G C96G A137G,-4.19

row,Variant,polymerase ribozyme fitness (log ratio)
1,A3U C85U,-0.254
2,U4G A23U G68A U127A,≤ -4.2
3,U4A A22C C96G A119U C149U,-3.08
4,A3C C5G C14G A24G A29U C32A U56G G86C U90G C116G A142C,≤ -4.2
5,A3U A26U G42C G58U C87A C125U C131G C132G,≤ -4.2
6,A3C C93G,≤ -4.2
7,A3G G11A C14A C95G C96A C103G,≤ -4.2
8,A3G U53A C54U C95U,-1.48
9,A3U C93U G141A U146G,-2.5
10,U4G C36A U55A U61A C76U C87U,≤ -4.2
11,C5A A12G G84A G88A A97U C116A,-3.84
12,U4C C87A A89U C129G,≤ -4.2
13,A3C U33C U44A U56G C85G,≤ -4.2
14,U4A U61A G94A,-1.99
15,A3U G59A C75U C93A A138G,-3.95
16,A3U C57U C85A C118U C125A,-2.55
17,A3U C5U C87U C96G C131A,≤ -4.2
18,U4A A66C A89U C93A C125G G143A,≤ -4.2
19,U4A G94U U102C,-3.03
20,U4C C5A U15C C36G U53A,-4.12
21,A3U A21G C76G G86U A121U,≤ -4.2

row,Variant,polymerase ribozyme fitness (log ratio)
1,A3U A147C,-0.51
2,A3U G59U,-0.0606
3,A3G A19G A28U C99U U130G,≤ -4.2
4,A3G C96U,-0.935
5,A3U U9A A23C C27G G81A C85G C132A,≤ -4.2
6,U4A G84U C85U G117U U145C,-2.29
7,U4G C38U G86C C105G A138C,≤ -4.2
8,A3U U6G C35U C76U C87G C103A A137C G152A,≤ -4.2
9,U4G C5U U55G A106C,-2.25
10,U4G G50C C118U,≤ -4.2
11,A3G C8G C35A U90G C95U C116G G152A,-4.12
12,A3G A22C,-0.593
13,A3U C10U U15C,-1.19
14,A3C A23U G50C U55A C105U C116U C125U,≤ -4.2
15,A3U A16U C93U U102C,-4.1
16,A3U A16U C38U G65C G88A,≤ -4.2
17,C5A A12G C35A G42A C96U,≤ -4.2
18,A3C C14G C103G A119G,≤ -4.2
19,U4A A21U G50A G68A G74A C75G C93U A107C C131G,≤ -4.2
20,A3G A19U C27A U82A C93G U111G,≤ -4.2
21,A3U G74A C75G A91U A120U C132U,≤ -4.2

row,Variant,polymerase ribozyme fitness (log ratio)
1,C5A A12U U13A U15A G83U C95U A107U C108U,≤ -4.2
2,A3U U6G G48A A107G,≤ -4.2
3,A3G A16U C18U A22C G25C C43U A49C G68C A106C U145C,≤ -4.2
4,U4C U55A G86U,-2.08
5,U4G G67A C85U C116A A122U A150U G152C,≤ -4.2
6,A3U C72U C79G G92U,≤ -4.2
7,U4G C10G A24U C35U U55G G83A C116A,≤ -4.2
8,A3C C5G G92U U134C U135A,-1.39
9,A3U C5G A29U U31C A41C U55A U56C G84A C87U U111G U135A,≤ -4.2
10,U4A G84A C99U U109G A120C G152C,-3.96
11,U4C A23C C43U G46A G84A C105G C118U A119C,≤ -4.2
12,U4A U13C C36U C96G,-2.21
13,U4C C32G C103G,≤ -4.2
14,U4C C36G G50A C51A C75A G83A G112U C116A,≤ -4.2
15,A3U A73G C79G C93A C116U G117U A138U,≤ -4.2
16,A3U C5U C35G A37G G86U A89G U104C C125G C131G,≤ -4.2
17,A3U U135G,-4.19
18,A3C U6G A60G G83C,-3.62
19,U4A G136A,0.134
20,A3C U9G U33G A49U G74U U77G C93G U104A,≤ -4.2
21,A3C C18G A30G C116G,≤ -4.2
